Measurements published in paper PMC6545562, “Slx5/Slx8‐dependent ubiquitin hotspots on chromatin contribute to stress tolerance” (The EMBO Journal, 2019).

Target: T1, 6His-Slx5, recombinant (S. cerevisiae, UniProt P32828 1-619)
T1 construct: Slx5, S. cerevisiae; Host and purification are in the Appendix Supplementary Methods; source: recombinant
T1 sequence (looked up): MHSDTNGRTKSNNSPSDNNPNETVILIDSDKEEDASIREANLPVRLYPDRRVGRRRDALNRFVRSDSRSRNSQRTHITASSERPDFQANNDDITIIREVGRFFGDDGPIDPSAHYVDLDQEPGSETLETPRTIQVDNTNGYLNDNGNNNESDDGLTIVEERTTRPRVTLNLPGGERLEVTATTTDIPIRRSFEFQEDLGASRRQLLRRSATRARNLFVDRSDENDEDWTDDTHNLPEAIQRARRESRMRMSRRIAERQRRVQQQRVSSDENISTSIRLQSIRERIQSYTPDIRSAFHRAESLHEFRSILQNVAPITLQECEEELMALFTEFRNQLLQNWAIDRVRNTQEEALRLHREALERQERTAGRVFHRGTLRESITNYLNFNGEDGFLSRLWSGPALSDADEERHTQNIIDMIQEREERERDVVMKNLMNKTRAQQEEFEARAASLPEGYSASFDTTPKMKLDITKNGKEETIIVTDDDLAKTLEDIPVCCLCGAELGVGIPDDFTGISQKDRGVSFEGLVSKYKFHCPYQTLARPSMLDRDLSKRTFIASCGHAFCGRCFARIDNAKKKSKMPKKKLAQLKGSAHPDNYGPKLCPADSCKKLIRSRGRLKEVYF
Assay: pull-down; GST pull-down: recombinant purified GST or GST-Euc1 used to co-precipitate recombinant 6His-Slx5
Conditions: both partners purified

binding result: binds
B1: GST-Euc1, recombinant (natural protein, S. cerevisiae, UniProt Q04461 1-462, looked up)
chain: MPAREYNYVEGFGGYGSLDDDDSDRDSERRNHDLGQRTITTSPTGVSRHAALNRYMIPGRINPLFRPTDAAQPPIVSTSTSASATEPTNRIGPGRIKETPETNFNAFLIAQLTRMEEQNANLKEEISLMKKEQELFFLENQKKLEKGFKDINKYVEDVSAMKEVFKEVVGIMTGERIRFIDHTGENVTPQEAARVGNPSTSTQAHQSQSRSTNWQEYSMHASILAGDPRIKPEPGLSDFENGEYDGNESDENATTRNLPLNNPDSVSNADDSNNQLDGTGNENDIRNRRGCVGTSYKLNRAIQNVTDAAREYFEGLPGQPSVLSLERRYGSTWRRSAKERTLFTKRMTIIKRIIDIKDDPSKYGLSLPENKISRNQAIKVVENIRLGNNTFKGHHCRLSMSQLYEYFSKKMDKLEDYSLTLKRRGKPRRIFLLEEREARLSLQQPHSIPNSSTGTPEHDQDT
notes: Euc1 (Ymr111c), S. cerevisiae; Host and purification are in the Appendix Supplementary Methods; also called recombinant, non‐SUMOylated Euc1; source: recombinant, purified
